B1: FBXO33 (parent)
chain: RLRGLLRVLRGRPGAGSRRRGRMA
B2: HESX1 (parent)
chain: HVPNPPSGISFPSVVDHPMPEERA

Variants of: B1
Test: protein stability index of a GFP-peptide fusion (GPS, HEK-293T) (PSI 1-6); higher = more stable
Details: c terminus: a fixed tail appended
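Also: lentivirally expressed fusions sorted by FACS into six bins by GFP to DsRed ratio, PSI derived from sequencing read proportions per bin multiplied by bin number.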

| Variant | protein stability index |
| --- | --- |
| RLRGLLRVLRGRPGAGERRRGRMA | 2.36 |
| FLRGLLRVLRGRPGAGSRRRGRMA | 1.53 |
| RLRGELRVLRGRPGAGSRRRGRMA | 3.98 |
| RLRGMLRVLRGRPGAGSRRRGRMA | 2.88 |
| RLRGLLRVLRGRPGAGSRRRHRMA | 1.66 |
| RLRGLLRHLRGRPGAGSRRRGRMA | 2.1 |
| RLRGLLRVLRGRPGAGSRRMGRMA | 2.24 |
| RLRGLLRVLRGQPGAGSRRRGRMA | 2.17 |
| RLRGLLRVLRGRPGAGSRRRGIMA | 2.78 |
| RLRGLLRVLRGRPGAGSLRRGRMA | 1.15 |
| RLRGLLSVLRGRPGAGSRRRGRMA | 2.83 |
| RLRGLIRVLRGRPGAGSRRRGRMA | 2.18 |
| RLRGLLRVLRGRPGAGSRRRGCMA | 2.09 |
| RLRGLLRVLRGRPVAGSRRRGRMA | 2.04 |
| RLRGLLRVERGRPGAGSRRRGRMA | 3.75 |
| RLRGLLRVLRGRPGAGSRRRGRMF | 2.73 |
| RLRGLLIVLRGRPGAGSRRRGRMA | 2.17 |
| RLMGLLRVLRGRPGAGSRRRGRMA | 1.54 |
| RLRGLLRVLRGRPGAGSRHRGRMA | 1.88 |
| RLRGLLWVLRGRPGAGSRRRGRMA | 1.69 |
| RLRGLLRVLCGRPGAGSRRRGRMA | 2.99 |
| RLRGLLRVLRGRPGAGSRRAGRMA | 4.73 |

| Variant | protein stability index |
| --- | --- |
| RLRGLLRVLRGRVGAGSRRRGRMA | 2.68 |
| RLRGLLRVLRGRPGAGSRRRPRMA | 1.69 |
| RLRGLLRVLRGRPGAPSRRRGRMA | 2.06 |
| RLRGCLRVLRGRPGAGSRRRGRMA | 3.17 |
| RLRGALRVLRGRPGAGSRRRGRMA | 4.21 |
| RLRGLLRVLRGRPGRGSRRRGRMA | 2.46 |
| RLRGLLRVLSGRPGAGSRRRGRMA | 1.93 |
| RLRGLLRVLPGRPGAGSRRRGRMA | 2.59 |
| RLRGLLRVLRGRPGAGSFRRGRMA | 1 |
| RLRGLLRVLRGRPGAGSRRCGRMA | 1.72 |
| RLRGLLRVLRGRPGAGSRKRGRMA | 1.89 |
| RLRGYLRVLRGRPGAGSRRRGRMA | 3.49 |
| RLRGLLRVLNGRPGAGSRRRGRMA | 1.72 |
| RLRGLLRVLRGRPGFGSRRRGRMA | 1.93 |
| RERGLLRVLRGRPGAGSRRRGRMA | 3.99 |
| RLRGLLRVLRGRPGAGYRRRGRMA | 2.52 |
| RLRGLLRVLRGRFGAGSRRRGRMA | 2.1 |
| RLRGLLRVLRGRPGAGSRRQGRMA | 1.56 |
| RLRGLLRVLRGRPGAGSRRRGRMP | 3.3 |
| RLRGLLRVLRGRPGAGSGRRGRMA | 1.16 |
| RLRGLLRVLRGRPGASSRRRGRMA | 1.5 |
| RLRGLLGVLRGRPGAGSRRRGRMA | 2.86 |

| Variant | protein stability index |
| --- | --- |
| RLRGLDRVLRGRPGAGSRRRGRMA | 5.1 |
| RLRGLLRVLRGRPGYGSRRRGRMA | 2.17 |
| RLRGLLRVLRGRPYAGSRRRGRMA | 3 |
| RLRGLLRVLRGRPGAGSRRFGRMA | 1.13 |
| RLRGLLRVLRGRPGAGSRRRGRMQ | 2.74 |
| RLRGLLRVYRGRPGAGSRRRGRMA | 2.73 |
| RLRGLLEVLRGRPGAGSRRRGRMA | 2.04 |
| RLRGLLRVLRCRPGAGSRRRGRMA | 1.64 |
| RLRGLLRVLRGRPMAGSRRRGRMA | 1.92 |
| RLRGLLRVLRGRPGAGSERRGRMA | 1.99 |
| RLRGLLRVLRGRPGAGSRRRCRMA | 1.39 |
| RLRGQLRVLRGRPGAGSRRRGRMA | 3.78 |
| RLRGLLRVLRGRPGAGGRRRGRMA | 1.92 |
| RLRGLLRYLRGRPGAGSRRRGRMA | 2.64 |
| RLRGLLRVLRGRPLAGSRRRGRMA | 1.41 |
| RLRGLLRVLRGRPGAGSRRRGRMY | 2.27 |
| RLRGLLRVLRGRPGAGSRRRGHMA | 2.33 |
| RLRGLLRVLRGRPGAGSRRRGRME | 2.54 |
| RLRGLLRVLRGRPGAGSRRRGRMD | 1.04 |
| RLRGLLRVLRGRPGCGSRRRGRMA | 1.71 |
| RLRGLLRVLRGRPGAGSRRRGRMW | 2.42 |
| RLRGLLRVLRGRPGAGSRERGRMA | 1.43 |

| Variant | protein stability index |
| --- | --- |
| NLRGLLRVLRGRPGAGSRRRGRMA | 2.01 |
| RLRGLLRVLRGRPGAGSRRRGMMA | 2.25 |
| RLRGLLRVLRGRPGAESRRRGRMA | 2.94 |
| RLRGDLRVLRGRPGAGSRRRGRMA | 4.05 |
| RLRGLLRVLRGRPGAGSRRRGRMR | 2.63 |
| RLRGLLRVLRGRPGAGSRNRGRMA | 1.71 |
| RLRDLLRVLRGRPGAGSRRRGRMA | 1.88 |
| RLRLLLRVLRGRPGAGSRRRGRMA | 2.2 |
| RLRGLLRPLRGRPGAGSRRRGRMA | 4.41 |
| RLRGLLRVLRGRPGAGSQRRGRMA | 2.83 |
| RLRGLLRVLRGRPGAGSYRRGRMA | 1.95 |
| RLRGLLRVLRGRPGAGSRRRGSMA | 1.99 |
| RLRGLLRVLRGRPGAGSRRRGRPA | 1.58 |
| RLRGLLRVLRGRPGAGSRTRGRMA | 1.75 |
| RLRGLLRVLRGRPGAISRRRGRMA | 1.01 |
| RLRGLLRVLRERPGAGSRRRGRMA | 1.83 |
| RLRPLLRVLRGRPGAGSRRRGRMA | 2.23 |
| RLDGLLRVLRGRPGAGSRRRGRMA | 2.67 |
| RLRHLLRVLRGRPGAGSRRRGRMA | 1.29 |

Variants of: B2
Test: as above
Details: c terminus: a fixed tail appended

| Variant | protein stability index |
| --- | --- |
| AVPNPPSGISFPSVVDHPMPEERA | 5.22 |
| CVPNPPSGISFPSVVDHPMPEERA | 4.48 |
| DVPNPPSGISFPSVVDHPMPEERA | 5.46 |
| EVPNPPSGISFPSVVDHPMPEERA | 5.06 |
| FVPNPPSGISFPSVVDHPMPEERA | 3.54 |
| GVPNPPSGISFPSVVDHPMPEERA | 5.41 |
| IVPNPPSGISFPSVVDHPMPEERA | 4.77 |
| KVPNPPSGISFPSVVDHPMPEERA | 4.82 |
| LVPNPPSGISFPSVVDHPMPEERA | 4.51 |
| MVPNPPSGISFPSVVDHPMPEERA | 5.08 |
| NVPNPPSGISFPSVVDHPMPEERA | 5.29 |
| PVPNPPSGISFPSVVDHPMPEERA | 5.28 |
| QVPNPPSGISFPSVVDHPMPEERA | 5.07 |
| RVPNPPSGISFPSVVDHPMPEERA | 4.62 |
| SVPNPPSGISFPSVVDHPMPEERA | 5.2 |
| TVPNPPSGISFPSVVDHPMPEERA | 5.62 |
| VVPNPPSGISFPSVVDHPMPEERA | 5.32 |
| WVPNPPSGISFPSVVDHPMPEERA | 4.33 |
| YVPNPPSGISFPSVVDHPMPEERA | 2.25 |
| HAPNPPSGISFPSVVDHPMPEERA | 4.97 |
| HCPNPPSGISFPSVVDHPMPEERA | 4.32 |
| HDPNPPSGISFPSVVDHPMPEERA | 5.52 |
| HEPNPPSGISFPSVVDHPMPEERA | 5.7 |
| HFPNPPSGISFPSVVDHPMPEERA | 4.78 |
| HGPNPPSGISFPSVVDHPMPEERA | 5.17 |
| HHPNPPSGISFPSVVDHPMPEERA | 4.86 |

| Variant | protein stability index |
| --- | --- |
| HIPNPPSGISFPSVVDHPMPEERA | 4.37 |
| HKPNPPSGISFPSVVDHPMPEERA | 5 |
| HLPNPPSGISFPSVVDHPMPEERA | 5 |
| HMPNPPSGISFPSVVDHPMPEERA | 5.26 |
| HNPNPPSGISFPSVVDHPMPEERA | 5.14 |
| HQPNPPSGISFPSVVDHPMPEERA | 5.26 |
| HRPNPPSGISFPSVVDHPMPEERA | 4.84 |
| HSPNPPSGISFPSVVDHPMPEERA | 5.06 |
| HTPNPPSGISFPSVVDHPMPEERA | 4.92 |
| HWPNPPSGISFPSVVDHPMPEERA | 4.53 |
| HYPNPPSGISFPSVVDHPMPEERA | 5.18 |
| HVANPPSGISFPSVVDHPMPEERA | 3.79 |
| HVCNPPSGISFPSVVDHPMPEERA | 3.54 |
| HVDNPPSGISFPSVVDHPMPEERA | 5.34 |
| HVENPPSGISFPSVVDHPMPEERA | 5.25 |
| HVFNPPSGISFPSVVDHPMPEERA | 3.85 |
| HVGNPPSGISFPSVVDHPMPEERA | 4.01 |
| HVHNPPSGISFPSVVDHPMPEERA | 4.13 |
| HVINPPSGISFPSVVDHPMPEERA | 3.96 |
| HVKNPPSGISFPSVVDHPMPEERA | 2.99 |
| HVLNPPSGISFPSVVDHPMPEERA | 3.88 |
| HVMNPPSGISFPSVVDHPMPEERA | 4.21 |
| HVNNPPSGISFPSVVDHPMPEERA | 4 |
| HVQNPPSGISFPSVVDHPMPEERA | 4.09 |
| HVRNPPSGISFPSVVDHPMPEERA | 2.27 |
| HVSNPPSGISFPSVVDHPMPEERA | 3.78 |

| Variant | protein stability index |
| --- | --- |
| HVTNPPSGISFPSVVDHPMPEERA | 3.9 |
| HVVNPPSGISFPSVVDHPMPEERA | 3.86 |
| HVWNPPSGISFPSVVDHPMPEERA | 2.94 |
| HVYNPPSGISFPSVVDHPMPEERA | 3.54 |
| HVPAPPSGISFPSVVDHPMPEERA | 1.65 |
| HVPCPPSGISFPSVVDHPMPEERA | 2.23 |
| HVPDPPSGISFPSVVDHPMPEERA | 3.88 |
| HVPEPPSGISFPSVVDHPMPEERA | 3.8 |
| HVPFPPSGISFPSVVDHPMPEERA | 3.47 |
| HVPGPPSGISFPSVVDHPMPEERA | 1.66 |
| HVPHPPSGISFPSVVDHPMPEERA | 3.09 |
| HVPIPPSGISFPSVVDHPMPEERA | 3.54 |
| HVPKPPSGISFPSVVDHPMPEERA | 3.76 |
| HVPLPPSGISFPSVVDHPMPEERA | 4.27 |
| HVPMPPSGISFPSVVDHPMPEERA | 3.04 |
| HVPQPPSGISFPSVVDHPMPEERA | 3.45 |
| HVPRPPSGISFPSVVDHPMPEERA | 4.18 |
| HVPSPPSGISFPSVVDHPMPEERA | 2.24 |
| HVPTPPSGISFPSVVDHPMPEERA | 2.22 |
| HVPVPPSGISFPSVVDHPMPEERA | 2.71 |
| HVPWPPSGISFPSVVDHPMPEERA | 3.44 |
| HVPYPPSGISFPSVVDHPMPEERA | 3.06 |
| HVPNAPSGISFPSVVDHPMPEERA | 2.71 |
| HVPNCPSGISFPSVVDHPMPEERA | 2.45 |
| HVPNDPSGISFPSVVDHPMPEERA | 3.96 |
| HVPNEPSGISFPSVVDHPMPEERA | 3.81 |

| Variant | protein stability index |
| --- | --- |
| HVPNFPSGISFPSVVDHPMPEERA | 2.38 |
| HVPNGPSGISFPSVVDHPMPEERA | 1.93 |
| HVPNHPSGISFPSVVDHPMPEERA | 2.6 |
| HVPNIPSGISFPSVVDHPMPEERA | 3.02 |
| HVPNKPSGISFPSVVDHPMPEERA | 2.69 |
| HVPNLPSGISFPSVVDHPMPEERA | 2.53 |
| HVPNMPSGISFPSVVDHPMPEERA | 2.95 |
| HVPNNPSGISFPSVVDHPMPEERA | 3.03 |
| HVPNQPSGISFPSVVDHPMPEERA | 3.5 |
| HVPNRPSGISFPSVVDHPMPEERA | 3.28 |
| HVPNSPSGISFPSVVDHPMPEERA | 3.76 |
| HVPNTPSGISFPSVVDHPMPEERA | 2.74 |
| HVPNVPSGISFPSVVDHPMPEERA | 2.82 |
| HVPNWPSGISFPSVVDHPMPEERA | 2.39 |
| HVPNYPSGISFPSVVDHPMPEERA | 2.03 |
| HVPNPASGISFPSVVDHPMPEERA | 2.34 |
| HVPNPCSGISFPSVVDHPMPEERA | 1.69 |
| HVPNPDSGISFPSVVDHPMPEERA | 2.56 |
| HVPNPESGISFPSVVDHPMPEERA | 2.98 |
| HVPNPFSGISFPSVVDHPMPEERA | 1.59 |
| HVPNPGSGISFPSVVDHPMPEERA | 1.81 |
| HVPNPHSGISFPSVVDHPMPEERA | 1.83 |
| HVPNPISGISFPSVVDHPMPEERA | 2.24 |
| HVPNPKSGISFPSVVDHPMPEERA | 1.78 |
| HVPNPLSGISFPSVVDHPMPEERA | 2.62 |

— the supplement of paper PMC10567573
